Laboratory results: IntAct's records for PubMed 9374523

B1: MutS protein homolog 5 (Saccharomyces cerevisiae), Q12175 (parent)
chain: MSHEWLISASETMRSIGNGEGLRDKGAVVANNDGEFNEGDTNREEDSSTIFSFDFDEEIVMCIDFSGGKLGCSILDYHTKTLKAFDQDYVVNKTTISSHDLIDDADMSSNDISLLLGLLIMEANPTVCLVPARLEDWIFDYIKTKCDEINCRLELQPIKRFKKWDLLQSLQLRGHDNQTILNDILSNSKFTTTVTLGTVGCILANHEQLGEYNDSTASSNMVTGRLVQNAFEDVIHGIRYIDIRDRMVLDENTISALHIFPTAHKLGHDKMMRNGFFSVFELFNQVSSDYARRILKSWLINPLTNKKRIETRYSIIRTLLDKQNAIIFSDLSQSIKRCPDAFGFINQLRSGKSTLGTWSKVASFLEKGIAIFQLVSSLKLGSDEANILHDIKNKVDISALKECLRKVETVIDFDTSRDTKTLTINTGVDNRLDECRNIYNHLEGILLDVARETQIFLLNTMPQEDCKTTKSLEKLVNAVYIPQLGYLVTISVLMEPLLDGIPNLQWEEIFRSSENIYFKNGRVLELDETYGDIYGAISDFEIEILFSLQEQILRRKTQLTAYNILLSELEILLSFAQVSAERNYAEPQLVEDECILEIINGRHALYETFLDNYIPNSTMIDGGLFSELSWCEQNKGRIIVVTGANASGKSVYLTQNGLIVYLAQIGCFVPAERARIGIADKILTRIRTQETVYKTQSSFLLDSQQMAKSLSLATEKSLILIDEYGKGTDILDGPSLFGSIMLNMSKSEKCPRIIACTHFHELFNENVLTENIKGIKHYCTDILISQKYNLLETAHVGEDHESEGITFLFKVKEGISKQSFGIYCAKVCGLSRDIVERAEELSRMINRGDDVVQQCGNLTEKEMREFQKNQEIVKKFLSWDLDLETTTTSENLRLKLKNFLR
partner: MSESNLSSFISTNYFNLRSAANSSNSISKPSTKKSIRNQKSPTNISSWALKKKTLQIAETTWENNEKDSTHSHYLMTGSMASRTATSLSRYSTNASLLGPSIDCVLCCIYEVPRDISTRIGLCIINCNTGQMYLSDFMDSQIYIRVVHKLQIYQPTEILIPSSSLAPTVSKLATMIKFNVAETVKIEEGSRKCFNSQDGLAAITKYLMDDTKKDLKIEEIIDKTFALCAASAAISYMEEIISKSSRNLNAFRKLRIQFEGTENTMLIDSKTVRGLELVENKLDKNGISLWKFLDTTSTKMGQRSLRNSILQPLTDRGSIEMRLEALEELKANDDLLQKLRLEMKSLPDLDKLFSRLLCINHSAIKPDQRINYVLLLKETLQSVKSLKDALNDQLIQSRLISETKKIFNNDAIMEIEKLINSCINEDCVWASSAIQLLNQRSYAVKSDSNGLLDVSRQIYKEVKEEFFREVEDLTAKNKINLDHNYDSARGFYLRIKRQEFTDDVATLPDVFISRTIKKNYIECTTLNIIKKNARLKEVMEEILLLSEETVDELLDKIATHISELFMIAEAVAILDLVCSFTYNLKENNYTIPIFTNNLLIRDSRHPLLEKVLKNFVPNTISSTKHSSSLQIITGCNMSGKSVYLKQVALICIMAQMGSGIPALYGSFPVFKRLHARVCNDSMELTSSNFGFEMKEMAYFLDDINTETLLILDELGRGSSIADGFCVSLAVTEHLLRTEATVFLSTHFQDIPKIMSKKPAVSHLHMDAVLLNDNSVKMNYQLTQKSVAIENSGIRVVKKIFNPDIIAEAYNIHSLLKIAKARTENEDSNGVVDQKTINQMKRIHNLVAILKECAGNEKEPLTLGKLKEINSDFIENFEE

Variants of: B1
Conditions: with msh4_yeast MSH4, P40965

Effect of a mutation on the interaction, with no effect:
G643D
G821D
A644V
G648R
